The record followed here is article PMC5352144, “Deacetylation of sialic acid by esterases potentiates pneumococcal neuraminidase activity for mucin utilization, colonization and virulence” (PLoS Pathogens, 2017).

This data set relates to CC(=O)Oc1ccc([N+](=O)[O-])cc1. As to the kind of experiment: purified protein. As to conditions: pH 7.5.

The Km is the substrate concentration at which the rate is half of its maximum. Turning to Axe (Streptococcus pneumoniae D39), the Km turned out to be 4.4 ± 0.58 mM.
